Laboratory results from the NTF2 design screens of Basanta et al. (2020).

experiment: protease stability score; higher = more stable; yeast display proteolysis, trypsin and chymotrypsin;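 also: relative to predicted unfolded state with 0 unfolded-like and 1 meaning tenfold more protease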

Row | Sequence | protease stability score
1 | SEHDNLMKEKLTLMEHTLMTGDEEVWRELLDPEALTTVDGQHFHGREEVVKFLRKVRRRVDHITSIEIESIDPQGEKLHLDGRNRIKIDGREIELNVVIIMRKINGRWFLRSWNVV | 1.22
2 | DEDEELALKMLEQWLRDLLTGDEETMVDLLDPNARLEIGDKENHGRDEVRKFWEELKKRFKNVRMEIEVHEIRVIGNKVHSINTLIIIIGDKRIKHHIHVHVVIFNGRVHSVHISIH | 1.35
3 | DELETYSRRMFQLLLHIMETGDEEKWDHLADPNARLDIDGREFHGREIVSEVHSQIRSELGVDHHQITHFRLHTFDGKVEVEMEVIDKFDGRDVRSRIHIIVIKINGKWFLHEMSYDHG | 1.35
4 | DDREEHAKELVDLFQKVMLTGDFKTLEELIDPNYRLHVNGQDVHGMERVIRHIFHMRFQDVKVKRIDHQGNKIDMDVRSIVNVDGRLHEHEIQLIALKVDGRWTVKSLEVH | 1.48
5 | DETTELAREAIELLVKSLRTGDWDTSSRLLDPHTRYHYGEFNSHGREMFIISLEFLWKHLRIEDVHITHIRSIGDKVDVDTVLRVNVNGQVVDVEFFIHAHKVNGKWLYTEIRVR | 1.16
6 | DEDKDLMHEVTRLLHRNLNTGDEHSLERLFDPHYRYHQGEFHSVGREEWYEWLRRYGVDHVHVNLTESISVGDKMKLEGKLELRYDGRRFEHDLHLIALKIDGRWIFTSSHVR | 0.221
7 | DELEEFLHTIMELVVRNMFTGDEDSFNNLADPDVKSHINGKNAVGREEIIRVWKEWVEEIRTTHYDIHDFTIIGDKAHSDTRVDGTFNGVRDTIDTRVIVLVVDGRLKSLEIRMH | 0.986
8 | SEDEHHLERALKEWIKVFETGDEDKEKKMADPHMRTDINGVELHGRELMITLIVELWEKLGVDHLEFNLSRFEIVNGQVFLHMEENLFVNGQRLRFKHEIIFNKVDGRWIVEEIRIH | 1.26
9 | HEDEDLLEELARKYKHHLETGDEHIIRRLVDPHVRIEQGEKKLIGREEFLRILTELLRSWGVTRFEFRIEDFRLQGDKAHMRGSVEVGDFHHDVEIVSRKIDGRWVITHYHEI | 0.118
10 | SEDEEQARHFVEMLEHVERTGDWRELEKLVDPHVIMDIDGVRHHGRHEVVDLSKKLGVDHVSLEHLEVQGDKAIIHFNMHVNGVEMHHHVDTRKVNGRWLNERIILK | 0.488
11 | DEERRRAKKFLEQFVRNVETGDEELHYHLADPHMKVKIGDKEFHGMEHWIEWFHRFGFDHMEIELKDIRVQGDKAHIDGRLHVDYNGREHSTNVELVVRKVNGRWRLHELRVE | 1.28
12 | DEDERSAKHYLDLWHHALETGDEHEEERLLDPHVKVDIGDKTSHGRENTRDIIRRLLEELGADVLEFHIRHVNVVNGRVHLDGELVIKVGDYTLRSRTRLLVLKVNGRWFIERIKIE | 1.09
13 | DEEEKLWHEVARLEFELIHTGNEETWNKLADPHTRTDINGKKLHGREDFAKWSLEFLRKVKGMTMELRSTHIQGNKIRLIIRLIVDGREVKLDLEIVIINGKLREVKMEVEDT | 2.56
14 | SEERHAVERYTEELARAISTGDEEKRLELLDPHVRYLQGDKHIHGRDEVWRHEHRQMEDLGVTRIEMRIRHIRIFNGRVEIEGEVRIGEFEMHFIIYVLKIDGRWIITQEEYS | 0.393
15 | DEIEKHHRELIELLFHWWHTGDFDSFHRFADPDVKLDFNGVEIHGRERANEFMTRLKEEIRIDDVKLERVQVIDGRMIIHGRRDGNVNGQKEDREVELYVIAINGRIKSVEIRIR | 1.71
16 | EEEKDWSTEVLRLFLEMMATGDWEFLARFLDPHVKLEVDGREFHGREEVSRSLEEHFRKFGADHVEIRLRRIREVDGRLHVDGRLILHIGDKTIERDMQVHSYKIDGQWSIHEVTHK | 1.45
17 | REEEEHLERVMSLILLIMSTGDFKTLSELFDPHARLRVGDKHLIGWSFVADWIVKFKNMQLRHHRRHVVNGVVEVEDEFRVGDKRFTLRLLFLVVDGVVKEVHIEIEDR | 0.833
18 | TEDDEWFNEILRLMVEAMKTGDEHILERLLDPHVRIEINGKEIHGREEFVERLEEQQRKFKGIRHELEIKHTEVINGRAHIDGRLHIDVNGRRKIYRVELVILKIDGRWSVEEIRIH | 1.67
19 | DEDHRHARNIFQKWTHDLATGNFHSLNTLFDPHARFEVGDKDIIGRHEWQEHLRHLRLHEVKFTWRRFRIFDGRVEMRGDLRVDGTIDGQHDDETIHTHMIILKVNGRWHIDSMHVH | 1.08
20 | TESKQEEHLALEVIEHAYRTGDEHELHELLDPHTRIFIGDKTHHGREFYLRVLKRERDELGVDKIEIIIRRVEIQGDKMIMDGELRVNGKTVRVHLILRKYDGRWLIKHITHE | 1.47
21 | SELEKHLEDVASMWLKVIQTGDWDKLFELADPNVRFEQIYGDKKVELHGREEMIEWLRKFMEQMRTEHRIHSMEVQGDKVHLDTRVILDFNGVRIHLETRVIIIVVNGRLHSYSEHVK | 1.31
22 | TEEETETRNLLELFIRSLHTGDEDLTKRLLDPNVRLELGEWEAHGRESVSEVLRLLWELLGVKHIEHHVHDMRVFNGRVHADTRVIMVFDGREHRIETELIVVKIDGRWFIKSIHIR | 1.61
23 | DRDEQMLRTYLHRMYESIRTGDEDSFKRLFDPNTRLHFENHHEHGWELLLRLMLRYANQADHFKLEIEDVTVQGDKAILRVHITVHVDGRDVSRSTVLYTTKVDGQWHFETVREK | 1.48
24 | SEDEHDARHAIELFLRSMETGDEQSIWELADPHTLSDIDGVKLHGRDLWITFLRRYSETLGVDRVIVQVERVEVQGDKVRSHIRLHINGVTLNSRVHAEKINGVWLNRKVEFG | 1.3
25 | SEDERDMEKASEDMLRNWMTGDFKSLHTLLDPHYRIDIDGQWHHGRDLWVEALRELLHQLGVERVEARERDFKIQGNKLESHIELRYNGRTIETDDLFIKIDGRWFIHSIHLRIR | 0.94

Row | Sequence | protease stability score
26 | DEEQHRMEEELRKMFEHLFTGDFKWLHKNVDPNARLDIGDKHVHGREAMVELIIRHVESLGVDHVKIRHVEVQGEKIEIRGESKVGDWKFSHHINVIVVDGVHKHFRIENR | 0.684
27 | SEEEELVKKATDHWKNVIKTGDEHTIKKLVDPSARIIINGQEHHGRHMIHTLIHLWGVDKIEVHLRHLHMQGDKLEIINEVRVNGQSSTLTTISTKINGVWQFEEVQLE | 0.902
28 | DEHEEYMEELVKSIYTLWKTGDEDTLLSLFDPNMRILIDGVDAVGRENFKEEFRRFKEEIRHKDHKIHHIDIQGEKIRTEVLVHGIWDGVDTTLHVEIRIVVINGRVKSIEFHFT | 1.74
29 | SEDEEYVKELADLFKELWETGDEETFMKLVDPNVRSDVNGKRVHGREEIRRVWHEVIRTLGIKYSHLRDMRIIGNKVVLDIELRVGDKRIELKVILIIVNGRMHYVELRLNEI | 1.89
30 | REEEHHLEKLARHIVHAILTGDERYLEKLMDPNTRVEIIDGEYRIERHGMHNIVHLLLEIRIHHFEIKRITTYNGQVDIDGEIDGEYGDKRDNRHVEIRFHFVNGRTKSFKVTWR | 1.31
31 | DHHEETIRHFAKLWVELWLTGDEKSLQTLADPHVRVHINGVDLHGRDAIHHFLRRIEERYKGLRIDVEEQRIVNGRTEMITEIHIGDKVWRTRLHVVVVDGRIHELSFKDE | 2.25
32 | DEETREAKEAFDIIIKHIETGDEDLLSEMLDPNVRINQGEFRIHGREAVEEWLNYMLHHMRVHVRSEEVRVVGDKVESDFRVQINQGDKIYHHDTRLFLFKIDGRWFIESMEFH | 1.36
33 | DEDTEEMRRFLKAFIRALETGNFEETLRLLDPNVRIRIGDKQLIGREEWHKWRERVDHYEVDDIEIEDMRVIGNKVHVFGRVDIKLIIGDKEHQDRKEVHIIMLKVNGRWLIHEIEVH | 1.91
34 | DEEQEIMEHILEELLRIDWTGDEHVLERLLDPNMQLEFNGVRLVGMEEVQRWLRRFLTEIRIHDFKVHDFHSFNGRLHSDVEVDFQVNGQRHITRVRLNLEVINGVVHRVEVRHE | 2.17
35 | SEDEELSRIISHLEVDLVHTGDEDTMRKLFDPNAKSHIHVGEYNIESHGREWISILWTDLGADHRELDEIQTDVQGDKVFVNMDLTMDVDGVSHRMFIQFVSVKVDGRWTIKEINVSVI | 1.81
36 | NEHEKLLKESLEELRHALRTGDEESLERLVDPHARMVVNGVTYHGREYLHRFFHRIDYFHNEHLDVKEVHVQGDKIHFDVVTHGVFHVGDKKIKDTIRLSSIAEKIDGRWFNREIFHH | 0.412
37 | DDHEEEVLRLLHTVLRIMWTGDEDELHRLADPNMKMWINGRKFHGRETAIETLKRMVNEIRIHEIHVKDFDVIGEYAHVDTRVRGTINGKETILNERIIVLVIDGRIKSIRIDLK | 2.13
38 | HEDEHELRHAVELFIWLIHTGDWHTELRLADPDVRHEVNGVENHGRELMLEDLQRIKNIRFHVRRVEIRVYGDKADLHIHGRKIVDGRHKELEIHVHIRKVNGKWLLHEVEVNIR | 1.59
39 | DHKEARDVAQTMMHLLKHGDFEQIVRNADPNAHFVVGDKEYHGRDNLRKVLKRLHDQVDHISFRTYKVDEDTAKLDATVQINGRNYRMDVLVHFHNGRIKDLNIKVTDEDTQREADK | 1.57
40 | SEEDEVTEKLVRLMIHAHHTGDEDLLKTLADPNVRLTIDYNGVKLTSHGREEFVRLLREWKRQIRIEDRKTTESHVYGNFAINNHVELGEFDGRRDRFEVRLHFVVFNGRVKEEKIKFD | 1.45
41 | SESERATRHALRLLWDILLTGDEETWEKMADPNVRVEIGNFHDHGMDSMRLLFHLLLERIDHIHDFTVRHSHSQGDKVENHTEIEVRQGDKSLNITTVFVYVKINGRWINKRVIFK | 0.999
42 | EEDREWVERIIRHYREAELTGDEDRMKELVDPNTRFHIDGVVYHGMDEWTRYVRELRMRSRTRVHQVRVIDGRIEADFEYEIHIEINGVQIDRRQEVILIFKKVNGKWIVERVIVV | 1.93
43 | EEKEEIDRREMKRFMKAFETGDEHELKELFDPHARVHVGDKVHIGRHNFLRWFKEWIEKYKNVRIELDDVEYQGEKLHLDLTVEINGRRTTQDLVIYKIDGRWLFKNIHVH | 0.607
44 | TEYEEHMKKMNEEILHSWITGDEDTLQHLADPNVRVEINGQETHGREQLYNTFHKAGFKHWEFDSIRFQGDKSDIRGQFEVDGQLREMEVEMRIVNGRLKIVRLDIR | 0.977
45 | TEEESQAREALLIVLELLRTGDWRSMEKYADPHTLQVFNGRHLHGRELFSDFLEEYERKLGVDRIRVHIHHLDVINGQLRVDTTIDYGDKHHRMIIIINKYDGRWELEQLRIT | 0.341
46 | DEFRRDALETHEDEIRDYLTGDWKSSKHLADPHARFVVGDKHYHGWHEMVRLVKENQEKFGIDHSEFRIHDSHVQGNKVIMDVEIHLTFNGKKIHTRSTILLVKINGVWLNTEIHID | 0.072
47 | DELDHEIRHVLHIIHHLLLTGDEEIFEEMADPDPRLDLVYGDKKIHVHGWKNILDMLKRLLDHWRIRHVEIKRITTQGNKAHLDTRSNLIINGRELIVIIELNVVTFNGVMKDMRIKIV | 1.65
48 | DDREEKIKRAWETFVHNVRTGDEDSNEELADPNVKVLFNGREFHGMEQLSKFFKHLRVHDFVLKDIRVVGDKVHVEGLVDGEINGKRELTTMHMVFIKFNGRWIIQSVEFK | 1.53
49 | SEQEHFDRLAFKLLLHSIHTGDWRLLTEEFDPNTLIIIGEKIHHGMEFVREHIEVLGADHVDIEIHIRHVRHQGNKADMDMQVDIDIDVNGRRIRIRSRRRYISLKVDGRWVTTSLEIK | 0.939
50 | SEEEEEHEELMRLMESTVRTGDFELFEKLADPNVRINIDGKDVHGREEFLEHWVRRWRDLGVNHLRIEHRRVYNGVIIIKVKILVNGREITLHIEARKVDGRWSVHKVEQH | 2.25
